{"source": "patent EP4624499A1", "about": "(Immunotech Applied Science Limited, dated 2025)", "binders": {"B1": {"name": "Tenth group of TCR (TCR, V domains shown)", "Valpha": "AQTVTQSQPEMSVQEAETVTLSCTYDTSESDYYLFWYKQPPSRQMILVIRQEAYKQQNATENRFSVNFQKAAKSFSLKISDSQLGDAAMYFCAYRSFYTGANSKLTFGKGITLSVRP", "Vbeta": "DAGVTQSPTHLIKTRGQQVTLRCSPKSGHDTVSWYQQALGQGPQFIFQYYEEEERQRGNFPDRFSGHQFPNYSSELNVNALLLGDSALYLCASSLYGGPGDQPQHFGDGTRLSIL"}, "B2": {"name": "Ninth group of TCR (TCR, V domains shown)", "V domain 1": "EDQVTQSPEALRLQEGESSSLNCSYTVSGLRGLFWYRQDPGKGPEFLFTLYSAGEEKEKERLKATLTKKESFLHITAPKPEDSATYLCVITTSGTYKYIFGTGTRLKVLA", "V domain 2": "NAGVTQTPKFQVLKTGQSMTLQCAQDMNHNSMYWYRQDPGMGLRLIYYSASEGTTDKGEVPNGYNVSRLNKREFSLRLESAAPSQTSVYFCASTINTYEQYFGPGTRLTVTE"}, "B3": {"name": "Ninth group of TCR (TCR, V domains shown)", "Valpha": "B2 V domain 1", "Vbeta": "NAGVTQTPKFQVLKTGQSMTLQCAQDMNHNSMYWYRQDPGMGLRLIYYSASEGTTDKGEVPNGYNVSRLNKREFSLRLESAAPSQTSVYFCASTINTYEQYFGPGTRLTVT"}, "B4": {"name": "Tenth group of TCR (TCR, V domains shown)", "V domain 1": "QTVTQSQPEMSVQEAETVTLSCTYDTSESDYYLFWYKQPPSRQMILVIRQEAYKQQNATENRFSVNFQKAAKSFSLKISDSQLGDAAMYFCAYRSFYTGANSKLTFGKGITLSVRP", "V domain 2": "DAGVTQSPTHLIKTRGQQVTLRCSPKSGHDTVSWYQQALGQGPQFIFQYYEEEERQRGNFPDRFSGHQFPNYSSELNVNALLLGDSALYLCASSLYGGPGDQPQHFGDGTRLSILE"}}, "key": {"[1]": {"biological_target": "T1, CMV pp65 peptide on HLA-A*11:01 (human)", "T1 peptide": "ATVQGQNLK", "experiment": "multimer staining"}, "[2]": {"biological_target": "CMV pp65501-509 antigen complex on Caki-2-PP65 target cells (human; human cytomegalovirus, UniProt P61769 21-119)", "experiment": "cell-based or functional assay"}}}
{"binder": "B1", "values": [{"measurement": "binding result", "setting": "[1]", "result": "recognises"}]}
{"binder": "B2", "values": [{"measurement": "killing activity at 4 h (RTCA), Caki-2-PP65 target cells, effector-to-target ratio 1:1", "setting": "[2]", "result": 7.1, "unit": "%"}, {"measurement": "killing activity at 4 h (RTCA), Caki-2-PP65 target cells, effector-to-target ratio 5:1", "setting": "[2]", "result": 44.5, "unit": "%"}, {"measurement": "killing activity at 4 h (RTCA), Caki-2-PP65 target cells, effector-to-target ratio 10:1", "setting": "[2]", "result": 61.5, "unit": "%"}]}
{"binder": "B3", "values": [{"measurement": "binding result", "setting": "[1]", "result": "recognises"}]}
{"binder": "B4", "values": [{"measurement": "killing activity at 4 h (RTCA), Caki-2-PP65 target cells, effector-to-target ratio 1:1", "setting": "[2]", "result": 23.5, "unit": "%"}, {"measurement": "killing activity at 4 h (RTCA), Caki-2-PP65 target cells, effector-to-target ratio 5:1 (ratio cell blank in this row, taken from r7)", "setting": "[2]", "result": 61.2, "unit": "%"}, {"measurement": "killing activity at 4 h (RTCA), Caki-2-PP65 target cells, effector-to-target ratio 10:1", "setting": "[2]", "result": 67.4, "unit": "%"}]}
